Assay [1] has as its target T1, human TNFR2 (residues 1-461) expressed on HEK-TNFR2 reporter cells (human, UniProt P20333 23-461).
T1 sequence (looked up): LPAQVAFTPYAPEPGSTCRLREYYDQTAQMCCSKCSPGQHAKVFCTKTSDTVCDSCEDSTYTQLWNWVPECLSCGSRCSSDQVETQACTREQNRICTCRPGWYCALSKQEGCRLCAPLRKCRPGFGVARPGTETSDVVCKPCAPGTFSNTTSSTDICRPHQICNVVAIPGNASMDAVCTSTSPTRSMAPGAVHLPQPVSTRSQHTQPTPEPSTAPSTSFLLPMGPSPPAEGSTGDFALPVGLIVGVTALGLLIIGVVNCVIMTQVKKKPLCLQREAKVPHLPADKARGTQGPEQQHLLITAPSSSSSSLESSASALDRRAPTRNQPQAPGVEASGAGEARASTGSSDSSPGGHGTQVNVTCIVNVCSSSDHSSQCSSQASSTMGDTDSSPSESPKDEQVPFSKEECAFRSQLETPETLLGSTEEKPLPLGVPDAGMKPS
Nature of the assay: cell-based or functional assay.

Assay [2] deals with T2, recombinant human TNFR2 with 6×his tag (human, UniProt P20333 23-257, limits assumed).
T2 construct: Bought (Reprokine, Israel); also called TNFR2-His; hTNFR2-His; not shown: 6xHis tag
T2 sequence (looked up): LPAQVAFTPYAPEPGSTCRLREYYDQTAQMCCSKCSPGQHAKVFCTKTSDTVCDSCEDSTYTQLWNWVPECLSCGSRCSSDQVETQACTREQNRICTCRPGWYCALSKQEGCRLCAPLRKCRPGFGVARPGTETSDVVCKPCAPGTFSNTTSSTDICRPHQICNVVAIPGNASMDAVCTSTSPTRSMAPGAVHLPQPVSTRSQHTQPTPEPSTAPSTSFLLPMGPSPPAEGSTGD
The experiment in a line: ELISA, IgG coated, hTNFR2-His titrated, anti-His-HRP. On the procedure: IgG binding affinity to TNFR2 was examined by ELISA. 96 well plates (Greiner Bio-One high binding) were coated with (50 ng/well) of the analyzed antibody and incubated overnight at 4° C. The plates were then washed three times with 300 μl PBS buffer containing 0.05% Tween 20 (PBS-T), blocked with 300μ PBS-T supplemented with 1% to 2% BSA, and incubated for 1 hour at room temperature. Antibodies-coated plates were washed three times with 300 μl PBS-T and incubated with serial dilutions of test ligand hTNFR2-His (Reprokine, Israel) in a final volume of […] for 1-2 hours. Plates were then washed three times with 300 μl PBS-T and incubated with 50 μl anti-HIS-HRP (Santa Cruz Biotechnology, USA, SC-8036HRP) conjugate that was diluted 1:250 in PBS. After an additional wash step of six washes, the reaction was developed with […] tetramethylbenzidine (TMB) reagent (Southern biotech, USA), and stopped with […] 0.5N H₂SO₄. Detection was done on a Synergy LX BioTek (BioTek, USA) plate reader with an absorbance filter set to […]. The binding affinity was determined by fitting the data to a specific binding non-linear regression model on Prisma 8 GraphPad software.
To test binding affinity of clones reformatted as IgG1 and IgG1LALA to TNFR2, an ELISA EC₅₀ binding experiment was conducted for each antibody.

B1: BDG30.086 (antibody, human IgG1, kappa)
heavy: not shown
light: DIQMTQSPSSLSASVGDRVTITCRASQDISTAVAWSQQKPGKAPKLLIYPASSLYSGVPSRFSGSRSGTDFTLTISSLQPEDFATYYCQQHPYTPPTFGQGTKVEIKRTVAAPSVFIFPPSDEQLKSGTASVVCLLNNFYPREAKVQWKVDNALQSGNSQESVTEQDSKDSTYSLSSTLTLSKADYEKHKVYACEVTHQGLSSPVTKSFNRGEC
notes: Human IgG1; also called IgG of CID_262
On to B1, for which, in assay [1], the “Functional Agonism EC50 (nM), NFkB-SEAP reporter” value (from here on “Functional Agonism EC50 (nM)”) stood at 1.4 nM. In assay [2], the EC50 worked out at 8.1 nM.

B2: BDG30.204 (antibody, human IgG1, kappa, L234A L235A)
heavy: not shown
light: DIQMTQSPSSLSASVGDRVTITCRASQDVSTAVAWYQQKPGKAPKLLIYPASSLYSGVPSRFSGSRSGTDFTLTISSLQPEDFATYYCQQPGYTPPTFGQGTKVEIKRTVAAPSVFIFPPSDEQLKSGTASVVCLLNNFYPREAKVQWKVDNALQSGNSQESVTEQDSKDSTYSLSSTLTLSKADYEKHKVYACEVTHQGLSSPVTKSFNRGEC
As for B2, the “Functional Agonism EC50 (nM)” value in assay [1] turned out to be 3.1 nM.

B3: BDG30.203 (antibody, human IgG1, kappa, L234A L235A)
heavy: not shown
light: DIQMTQSPSSLSASVGDRVTITCRASQDVSTAVAWSQQKPGKAPKLLIYPASSLYSGVPSRFSGSRSGTDFTLTISSLQPEDFATYYCQQPTLTPPTFGQGTKVEIKRTVAAPSVFIFPPSDEQLKSGTASVVCLLNNFYPREAKVQWKVDNALQSGNSQESVTEQDSKDSTYSLSSTLTLSKADYEKHKVYACEVTHQGLSSPVTKSFNRGEC
With B3, the “Functional Agonism EC50 (nM)” value in assay [1] was determined as 0.5 nM.

B4: BDG30.202 (antibody, human IgG1, kappa, L234A L235A)
heavy: not shown
light: DIQMTQSPSSLSASVGDRVTITCRASQDISTAVAWSQQKPGKAPKLLIYSASSLYSGVPSRFSGSRSGTDFTLTISSLQPEDFATYYCQQPSLTPPTFGQGTKVEIKRTVAAPSVFIFPPSDEQLKSGTASVVCLLNNFYPREAKVQWKVDNALQSGNSQESVTEQDSKDSTYSLSSTLTLSKADYEKHKVYACEVTHQGLSSPVTKSFNRGEC
In the case of B4, the “Functional Agonism EC50 (nM)” value in assay [1] came out at 2.9 nM.

B5: BDG30.116 (antibody, human IgG1, kappa, L234A L235A)
heavy: not shown
light: DIQMTQSPSSLSASVGDRVTITCRASQDISTAVAWSQQKPGKAPKLLIYPASSLYSGVPSRFSGSRSGTDFTLTISSLQPEDFATYYCQQHPYTPPTFGQGTKVEIKRTVAAPSVFIFPPSDEQLKSGTASVVCLLNNFYPREAKVQWKVDNALQSGNSQESVTEQDSKDSTYSLSSTLTLSKADYEKHKVYACEVTHQGLSSPVTKSFNRGEC
notes: Human IgG1(L234A/L235A); also called IgG of CID_262
For B5, the “Functional Agonism EC50 (nM)” value in assay [1] worked out at 3 nM. Also, in assay [2], the EC50 came to 5.1 nM.

B6: BDG30.089 (antibody, human IgG1, kappa, V domains shown)
VH: EVQLVESGGGLVQPGGSLRLSCAASGFNIRDYYIHWVRQAPGKGLEWVADIDPTNGDTRYADSVKGRFTISADTSKNTAYLQMNSLRAEDTAVYYCSREGQDGYNAWDLWGQGTLVTVSS
VL: DIQMTQSPSSLSASVGDRVTITCRASQDVSTAVAWYQQKPGKAPKLLIYPASSLYSGVPSRFSGSRSGTDFTLTISSLQPEDFATYYCQQHPYTPPTFGQGTKVEIKR
notes: Human IgG1; also called IgG of CID_267
B6: the EC50 in assay [2] is 50.4 nM.

B7: BDG30.087 (antibody, human IgG1, kappa)
heavy: not shown
light: DIQMTQSPSSLSASVGDRVTITCRASQDVSTAVAWSQQKPGKAPKLLIYPASSLYSGVPSRFSGSRSGTDFTLTISSLQPEDFATYYCQQPTLTPPTFGQGTKVEIKRTVAAPSVFIFPPSDEQLKSGTASVVCLLNNFYPREAKVQWKVDNALQSGNSQESVTEQDSKDSTYSLSSTLTLSKADYEKHKVYACEVTHQGLSSPVTKSFNRGEC
notes: Human IgG1; also called IgG of CID_264
As for B7, in assay [1], the “Functional Agonism EC50 (nM)” value was determined as 3.9 nM. The EC50 in assay [2] worked out at 18.4 nM.

B8: BDG30.085 (antibody, human IgG1, kappa)
heavy: not shown
light: DIQMTQSPSSLSASVGDRVTITCRASQDISTAVAWSQQKPGKAPKLLIYSASSLYSGVPSRFSGSRSGTDFTLTISSLQPEDFATYYCQQPSLTPPTFGQGTKVEIKRTVAAPSVFIFPPSDEQLKSGTASVVCLLNNFYPREAKVQWKVDNALQSGNSQESVTEQDSKDSTYSLSSTLTLSKADYEKHKVYACEVTHQGLSSPVTKSFNRGEC
notes: Human IgG1; also called IgG of CID_261
With B8, in assay [1], the “Functional Agonism EC50 (nM)” value was determined as 24.7 nM. The concentration giving a half-maximal response (EC50) in assay [2] came out at 4.3 nM.

B9: BDG30.088 (antibody, human IgG1, kappa)
heavy: not shown
light: DIQMTQSPSSLSASVGDRVTITCRASQDVSTAVAWYQQKPGKAPKLLIYPASSLYSGVPSRFSGSRSGTDFTLTISSLQPEDFATYYCQQPGYTPPTFGQGTKVEIKRTVAAPSVFIFPPSDEQLKSGTASVVCLLNNFYPREAKVQWKVDNALQSGNSQESVTEQDSKDSTYSLSSTLTLSKADYEKHKVYACEVTHQGLSSPVTKSFNRGEC
notes: Human IgG1; also called IgG of CID_266
As to B9, in assay [1], the “Functional Agonism EC50 (nM)” value came to 49 nM. Also, in assay [2], the EC50 was found to be 13.1 nM.

B10: BDG30.113 (antibody, human IgG1, kappa, L234A L235A, V domains shown)
VH: EVQLVQSGPELKKPGASVKVSCKGSGYTFTDLGMGWVRQAPGQGLEWMGWINTQTGEPFYADDFKGRFVFSLDTSVSTAYLQISSLKAEDTAVYYCTRDHPLGLDYWGQGTLVTVSS
VL: DIQVTQSPSSLSASVGDRVTITCITSQSVDVAGVSYLNWYQQKPGKVPKFLIHKASNLRSGVPSRFSGSGSGTDFTLTISSLQPEDVATYYCQQAREDPYTFGQGTKVEIKR
notes: Human IgG1(L234A/L235A); also called IgG of CID_327
Turning to B10, the “Functional Agonism EC50 (nM)” value in assay [1] amounted to 3.8 nM. For the same molecule, the EC50 in assay [2] was found to be 2.5 nM.

B11: BDG30.114 (antibody, human IgG1, kappa, L234A L235A, V domains shown)
VH: EVQLVQSGPELKKPGASVKVSCKGSGYTFTDLGMNWVRQAPGQGLEWMGWINTQTGEPFYADDFKGRFVFSLDTSVSTAYLQISSLKAEDTAVYFCARDHPLGLDYWGQGTLVTVSS
VL: DIQVTQSPSSLSASVGDRVTITCITSQSVDVNGVSYLNWYQQKPGKVPKFLIYKASILRSGVPSRFSGSGSGTDFTLTISSLQPEDVATYYCQQSREDPYTFGQGTKVEIKR
notes: Human IgG1(L234A/L235A); also called IgG of CID_328
As to B11, in assay [1], the “Functional Agonism EC50 (nM)” value stood at 6.4 nM. In addition, the concentration for a half-maximal effect (EC50) in assay [2] was 2.2 nM.

B12: BDG30.032 (antibody, human IgG1, kappa)
heavy: not shown
light: DIQMTQSPILLSASVGDRVTITCRASQDVSTAVAWSQQRTNGSPRLLIYSASSLYSGVPSRFSGSRSGTDFTLTISSLQPEDIADYYCQQPTYTPPTFGAGTKVEIKRTVAAPSVFIFPPSDEQLKSGTASVVCLLNNFYPREAKVQWKVDNALQSGNSQESVTEQDSKDSTYSLSSTLTLSKADYEKHKVYACEVTHQGLSSPVTKSFNRGEC
notes: Human IgG1; produced in HEK cells by Genscript; also called IgG of CID_436
As to B12, the “Functional Agonism EC50 (nM)” value in assay [1] worked out at 0.85 nM. Moreover, in assay [2], the EC50 turned out to be 21.9 nM.

B13: BDG30.115 (antibody, human IgG1, kappa, L234A L235A)
heavy: not shown
light: DIQMTQSPILLSASVGDRVTITCRASQDVSTAVAWSQQRTNGSPRLLIYSASSLYSGVPSRFSGSRSGTDFTLTISSLQPEDIADYYCQQPTYTPPTFGAGTKVEIKRTVAAPSVFIFPPSDEQLKSGTASVVCLLNNFYPREAKVQWKVDNALQSGNSQESVTEQDSKDSTYSLSSTLTLSKADYEKHKVYACEVTHQGLSSPVTKSFNRGEC
For B13, the “Functional Agonism EC50 (nM)” value in assay [1] came out at 1 nM.

B14: BDG30.081 (antibody, human IgG1, kappa, V domains shown)
VH: EVQLVESGGGLVQPGGSLRLSCAASGFNIRATYIHWVRQSPGKGLEWVADISPDNGDTRYADSVKGRFTISADTSKNTAYLQMNSLRAEDTAIYYCSRDLADGYNAFDLWGQGTLVTVSS
VL: DIQMTQSPILLSASVGDRVTITCRASQDVSTAVAWSQQRTNGSPRLLIYSASSLYSGVPSRFSGSRSGTDFTLTISSLQPEDIADYYCQQHGYTPPTFGAGTKVEIKR
notes: Human IgG1; also called IgG of CID_231
B14: the half-maximal effective concentration (EC50) in assay [2] is 50.7 nM.

B15: BDG30.084 (antibody, human IgG1, kappa, V domains shown)
VH: EVQLVESGGGLVQPGGSLRLSCAASGFNIRAFYIHWVRQSPGKGLEWVADIDPTNGDTRYADSVKGRFTISADTSKNTAYLQMNSLRAEDTAIYYCTREGEDGYNAFDQWGQGTLVTVSS
VL: DIQMTQSPILLSASVGDRVTITCRASQDVSTAVAWYQQRTNGSPRLLIYPASSLYSGVPSRFSGSRSGTDFTLTISSLQPEDIADYYCQQPRYTPPTFGAGTKVEIKR
notes: Human IgG1; also called IgG of CID_234
As to B15, the 50% effective concentration (EC50) in assay [2] came out at 58.9 nM.

For the origin of these results see US20230167188A1 (BIOLOJIC DESIGN, published 2023).
